Measurements as given in publication PMC9036094, “Antigen-derived peptides engage the ER stress sensor IRE1α to curb dendritic cell cross-presentation” (The Journal of Cell Biology, 2022).

Assays:
IRE1α LD-Fc [1] = experiment: Co-immunoprecipitation of ovalbumin with IRE1α LD-Fc; type: binding, human; settings: LD-Fc 10 μg/ml, 2 h; ovalbumin 1-300 μg/ml; in words
Experimental: (§1) For experiments testing ovalbumin binding, a human LD-Fc was used at indicated concentrations. LD-Fc is comprised of amino acids M1-D443 of IRE1α fused C-terminally to a linker ([…]) followed by the human IgG1 hinge and Fc portion. Ovalbumin (Sigma-Aldrich) was dissolved in sterile PBS and used in native state or denatured as indicated by incubation at 95°C buffer for 10 min.
For co-immunoprecipitation experiments, IRE1α LD-Fc (10 μg/ml) and ovalbumin (indicated concentrations) were co-incubated in binding buffer (as described above) for 2 h and then immunoprecipitated with anti-IRE1α LD antibody (made in-house at Genentech), conjugated to sepharose beads, overnight at 4°C. Beads were subsequently washed four times with lysis buffer and boiled in SDS sample buffer for 10 min. Samples were then analyzed by SDS-PAGE followed by immunoblot.

IRE1α LD-Fc [2] = experiment: Plate-based ovalbumin binding to IRE1α LD-Fc; set-up: species or system human; settings: LD-Fc 10 μg/ml, 2 h, room temperature; in words
Experimental: as §1
For plate-based binding experiments, native or heat-denatured ovalbumin at indicated concentrations was bound to a flat-bottom 96-well plate (Corning Inc.) with coating buffer (BioLegend), washed with PBSt, blocked with 1% BSA in PBS, and subsequently incubated with IRE1α LD-Fc (10 μg/ml) in binding buffer composed of PBS with 20 mM Hepes, 100 mM KOAc, and 0.2% tween-20 for 2 h at room temperature. Plates were washed again with PBSt and incubated with an anti-human Fc HRP-conjugated antibody (ab977225; Abcam). Development was performed with 3,3′,5,5′-Tetramethylbenzidine solution and terminated with Stop solution (BioLegend). Readings were taken with a SpectraMax M2 spectrometer (Molecular Devices).

IRE1α in TAP1 KO BMDCs = experiment: IRE1α activation in TAP1-disrupted BMDCs (immunoblot); type: cell-based, mouse; settings: CRISPR/Cas9 TAP1; ovalbumin 500 μg/ml, 4 h
Experimental: Figure 1. Antigen pulsing of BMDCs activates IRE1α. (A) BMDCs were pulsed with ovalbumin (starting at 62.5 μg/ml and sequentially doubled) and analyzed by immunoblot (IB) for the indicated markers. (B) BMDCs were pulsed with ovalbumin (starting at 500 μg/ml and sequentially halved) or […] (1 μM), or stimulated with tunicamycin (1 μg/ml) or poly-I:C (25 μg/ml) for 4 h, and analyzed by IB. (C) BMDCs were pulsed with ovalbumin (500 μg/ml) for indicated time points and analyzed by IB. (D) BMDCs were pulsed for 4 h with ovalbumin or lysates derived from the indicated cell lines (500 μg/ml protein) and analyzed by IB. […] (F) Upon removal from bone marrow, total bone marrow cells were transfected with non-targeting control (NTC) or TAP1-targeting gRNAs, along with CRISPR/Cas9 delivery constructs. Cells were then subjected to standard BMDC-differentiation protocol, pulsed with ovalbumin (500 μg/ml) for 4 h, and analyzed by IB. All IB images are representative of at least two similar experiments, and molecular weights represent kD. Source data are available for this figure: SourceData F1.
Cells were lysed in PBS solution supplemented with 1X radioimmunoprecipitation assay buffer (Millipore) and 2X Halt protease-phosphatase inhibitor cocktail (Thermo Fisher Scientific). […]

B1: ovalbumin: classical protein antigen ovalbumin (Sigma-Aldrich) (protein)
chain: MGSIGAASMEFCFDVFKELKVHHANENIFYCPIAIMSALAMVYLGAKDSTRTQINKVVRFDKLPGFGDSIEAQCGTSVNVHSSLRDILNQITKPNDVYSFSLASRLYAEERYPILPEYLQCVKELYRGGLEPINFQTAADQARELINSWVESQTNGIIRNVLQPSSVDSQTAMVLVNAIVFKGLWEKAFKDEDTQAMPFRVTEQESKPVQMMYQIGLFRVASMASEKMKILELPFASGTMSMLVLLPDEVSGLEQLESIINFEKLTEWTSSNVMEERKIKVYLPRMKMEEKYNLTSVLMAMGITDVFSSSANLSGISSAESLKISQAVHAAHAEINEAGREVVGSAEAGVDAASVSEEFRADHPFLFCIKHIATNAVLFFGRCVSP
co-immunoprecipitation with IRE1α LD-Fc (IRE1α LD-Fc [1]): did not show appreciable binding | binding to immobilized IRE1α LD-Fc (IRE1α LD-Fc [2]): little binding over background | IRE1α stimulation upon TAP1 disruption (IRE1α in TAP1 KO BMDCs): prevented IRE1α stimulation
